Data as given in patent publication US20240368565A1, “COMPLEMENTATION-BASED TAGS AND REPORTERS FOR DUAL-MODALITY LABELING” (Promega Corporation, priority 2023, published 2024).

Experiments:
[1] = system: DualTag peptide; experiment: Dissociation kinetics after complementation with synthetic peptide (dilution, luminescence); conditions: 100 nM protein, 200 nM peptide, diluted to 1 pM, furimazine
Protocol: After preincubation with peptide, samples were diluted to 1 pM in either buffer alone or buffer 100 nM Tag peptide. At various time points, samples were transferred into luminescent substrate (Furimazine) to monitor dissociation of the complex.

[2] = system: synthetic HaloTag[3-19] peptide; experiment: Stabilization of activity of LgHT-LgBiT variants by synthetic peptides in E. coli lysates; type: biochemical; conditions: 10 micromolar or more synthetic peptide, 10 minutes at temperature, 50 nM JF646 HaloTag ligand
[3] = 10 nM protein, 125 micromolar HaloTag[3-19] synthetic peptide, 10 minutes, 2.5 nM TMR HaloTag ligand
[4] = Labeling kinetics of LgHT-LgBiT variants with TMR HaloTag ligand in E. coli lysates (fluorescence polarization); type: biochemical; conditions: 200 micromolar HaloTag[3-19] synthetic peptide, 10 nM TMR HaloTag ligand, versus M2F control
[5] = Labeling kinetics with various HaloTag ligands (fluorescence polarization); type: biochemical; conditions: proteins at 10 nM, ligand at 2.5 nM, Tris-buffered saline+0.01% CHAPS
Protocol: FIG. 132. Labeling kinetics of HaloTag7 and HaloTag[22-297](M2F+D53G+K140E)-12×Gly/Ser-LgBiT-3×Gly/Ser-6×His with HaloTag ligand JF549. Fluorescence polarization was monitored over time to observe labeling kinetics of JF549 HaloTag ligand by HaloTag standard protein or HaloTag[22-297](M2F+D53G+K140E)-12×Gly/Ser-LgBiT-3×Gly/Ser-6×His. The experiment was completed in Tris-buffered saline+0.01% CHAPS with proteins at 10 nM and ligand at 2.5 nM.
FIG. 133. Labeling kinetics of HaloTag7 and HaloTag[22-297](M2F+D53G+K140E)-12×Gly/Ser-LgBiT-3×Gly/Ser-6×His with HaloTag ligand JF503. Fluorescence polarization was monitored over time to observe labeling kinetics of JF503 HaloTag ligand by HaloTag standard protein or HaloTag[22-297](M2F+D53G+K140E)-12×Gly/Ser-LgBiT-3×Gly/Ser-6×His. The experiment was completed in Tris-buffered saline+0.01% CHAPS with proteins at 10 nM and ligand at 2.5 nM.
FIG. 134. Labeling kinetics of HaloTag7 and HaloTag[22-297](M2F+D53G+K140E)-12×Gly/Ser-LgBiT-3×Gly/Ser-6×His with HaloTag ligand JFX554. Fluorescence polarization was monitored over time to observe labeling kinetics of JFX554 HaloTag ligand by HaloTag standard protein or HaloTag[22-297](M2F+D53G+K140E)-12×Gly/Ser-LgBiT-3×Gly/Ser-6×His. The experiment was completed in Tris-buffered saline+0.01% CHAPS with proteins at 10 nM and ligand at 2.5 nM.
FIG. 135. Labeling kinetics of HaloTag7 and HaloTag[22-297](M2F+D53G+K140E)-12×Gly/Ser-LgBiT-3×Gly/Ser-6×His with HaloTag ligand Oregon Green. Fluorescence polarization was monitored over time to observe labeling kinetics of Oregon Green HaloTag ligand by HaloTag standard protein or HaloTag[22-297](M2F+D53G+K140E)-12×Gly/Ser-LgBiT-3×Gly/Ser-6×His. The experiment was completed in Tris-buffered saline+0.01% CHAPS with proteins at 10 nM and ligand at 2.5 nM.
FIG. 136. Labeling kinetics of HaloTag7 and HaloTag[22-297](M2F+D53G+K140E)-12×Gly/Ser-LgBiT-3×Gly/Ser-6×His with a FAM HaloTag ligand. Fluorescence polarization was monitored over time to observe labeling kinetics of FAM HaloTag ligand by HaloTag standard protein or HaloTag[22-297](M2F+D53G+K140E)-12×Gly/Ser-LgBiT-3×Gly/Ser-6×His. The experiment was completed in Tris-buffered saline+0.01% CHAPS with proteins at 10 nM and ligand at 2.5 nM.

B1: LgBiT: polypeptide component of a bioluminescent complex (β1-9-like polypeptide) (protein)
chain: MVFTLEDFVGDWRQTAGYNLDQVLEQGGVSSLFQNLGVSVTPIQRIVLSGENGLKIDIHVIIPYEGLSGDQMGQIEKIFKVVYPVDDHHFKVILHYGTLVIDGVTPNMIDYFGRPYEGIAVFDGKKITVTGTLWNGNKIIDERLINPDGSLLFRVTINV
Dissociation from the DualTag peptide [1]: faster dissociation

B2: D53G+V177E: reporter variant of FIG. 50 (protein)
chain: MFHYVDVGPRDGTPVLFLHGNPTSSYVWRNIIPHVAPTHRCIAPDLIGMGKSGKPDLGYFFDDHVRFMDAFIEALGLEEVVLVIHDWGSALGFHWAKRNPERVKGIAFMEFIRPIPTWDEWPEFARETFQAFRTTDVGRKLIIDQNVFIEGTLPMGVVRPLTEVEMDHYREPFLNPEDREPLWRFPNELPIAGEPANIVALVEEYMDWLHQSPVPKLLFWGTPGVLIPPAEAARLAKSLPNCKAVDIGPGLNLLQEDNPDLIGSEIARWLSTLEISGGSGGSGGGGSGGMVFTLEDFVGDWEQTAAYNLDQVLEQGGVSSLLQNLAVSVTPIQRIVRSGENALKIDIHVIIPYEGLSADQMAQIEEVFKVVYPVDDHHFKVILPYGTLVIDGVTPNMLNYFGRPYEGIAVFDGKKITVTGTLWNGNKIIDERLITPDGSMLFRVTINS
Optimal temperature of peptide stabilization versus the non-peptide condition [2]: ~35 °C

B3: M49F+S89A: reporter variant of FIG. 51 (protein)
chain: MFHYVDVGPRDGTPVLFLHGNPTSSYVWRNIIPHVAPTHRCIAPDLIGFGKSDKPDLGYFFDDHVRFMDAFIEALGLEEVVLVIHDWGAALGFHWAKRNPERVKGIAFMEFIRPIPTWDEWPEFARETFQAFRTTDVGRKLIIDQNVFIEGTLPMGVVRPLTEVEMDHYREPFLNPVDREPLWRFPNELPIAGEPANIVALVEEYMDWLHQSPVPKLLFWGTPGVLIPPAEAARLAKSLPNCKAVDIGPGLNLLQEDNPDLIGSEIARWLSTLEISGGSGGSGGGGSGGMVFTLEDFVGDWEQTAAYNLDQVLEQGGVSSLLQNLAVSVTPIQRIVRSGENALKIDIHVIIPYEGLSADQMAQIEEVFKVVYPVDDHHFKVILPYGTLVIDGVTPNMLNYFGRPYEGIAVFDGKKITVTGTLWNGNKIIDERLITPDGSMLFRVTINS
Optimal temperature of peptide stabilization versus the non-peptide condition [2]: ~35 °C

B4: M49F+L57I: reporter variant of FIG. 52 (protein)
chain: MFHYVDVGPRDGTPVLFLHGNPTSSYVWRNIIPHVAPTHRCIAPDLIGFGKSDKPDIGYFFDDHVRFMDAFIEALGLEEVVLVIHDWGSALGFHWAKRNPERVKGIAFMEFIRPIPTWDEWPEFARETFQAFRTTDVGRKLIIDQNVFIEGTLPMGVVRPLTEVEMDHYREPFLNPVDREPLWRFPNELPIAGEPANIVALVEEYMDWLHQSPVPKLLFWGTPGVLIPPAEAARLAKSLPNCKAVDIGPGLNLLQEDNPDLIGSEIARWLSTLEISGGSGGSGGGGSGGMVFTLEDFVGDWEQTAAYNLDQVLEQGGVSSLLQNLAVSVTPIQRIVRSGENALKIDIHVIIPYEGLSADQMAQIEEVFKVVYPVDDHHFKVILPYGTLVIDGVTPNMLNYFGRPYEGIAVFDGKKITVTGTLWNGNKIIDERLITPDGSMLFRVTINS
Optimal temperature of peptide stabilization versus the non-peptide condition [2]: ~40 °C

B5: M2F+D53S+V177E: more highly stabilized purified reporter variant of FIG. 60 (protein)
chain: MFHYVDVGPRDGTPVLFLHGNPTSSYVWRNIIPHVAPTHRCIAPDLIGMGKSSKPDLGYFFDDHVRFMDAFIEALGLEEVVLVIHDWGSALGFHWAKRNPERVKGIAFMEFIRPIPTWDEWPEFARETFQAFRTTDVGRKLIIDQNVFIEGTLPMGVVRPLTEVEMDHYREPFLNPEDREPLWRFPNELPIAGEPANIVALVEEYMDWLHQSPVPKLLFWGTPGVLIPPAEAARLAKSLPNCKAVDIGPGLNLLQEDNPDLIGSEIARWLSTLEISGGSGGSGGGGSGGMVFTLEDFVGDWEQTAAYNLDQVLEQGGVSSLLQNLAVSVTPIQRIVRSGENALKIDIHVIIPYEGLSADQMAQIEEVFKVVYPVDDHHFKVILPYGTLVIDGVTPNMLNYFGRPYEGIAVFDGKKITVTGTLWNGNKIIDERLITPDGSMLFRVTINS
Loss of activity at 37° C. temperature challenge [3]: loses less than half of its activity

B6: M2F+D53G+V177E: reporter variant of FIG. 53 (protein)
chain: MFHYVDVGPRDGTPVLFLHGNPTSSYVWRNIIPHVAPTHRCIAPDLIGMGKSGKPDLGYFFDDHVRFMDAFIEALGLEEVVLVIHDWGSALGFHWAKRNPERVKGIAFMEFIRPIPTWDEWPEFARETFQAFRTTDVGRKLIIDQNVFIEGTLPMGVVRPLTEVEMDHYREPFLNPEDREPLWRFPNELPIAGEPANIVALVEEYMDWLHQSPVPKLLFWGTPGVLIPPAEAARLAKSLPNCKAVDIGPGLNLLQEDNPDLIGSEIARWLSTLEISGGSGGSGGGGSGGMVFTLEDFVGDWEQTAAYNLDQVLEQGGVSSLLQNLAVSVTPIQRIVRSGENALKIDIHVIIPYEGLSADQMAQIEEVFKVVYPVDDHHFKVILPYGTLVIDGVTPNMLNYFGRPYEGIAVFDGKKITVTGTLWNGNKIIDERLITPDGSMLFRVTINSGSGHHHHHH
Labeling with TMR HaloTag ligand, response to synthetic peptide complementation [4]: faster ligand binding and labeling

B7: M2F+K140E: reporter variant of FIG. 54 and 58 (protein)
chain: MFHYVDVGPRDGTPVLFLHGNPTSSYVWRNIIPHVAPTHRCIAPDLIGMGKSDKPDLGYFFDDHVRFMDAFIEALGLEEVVLVIHDWGSALGFHWAKRNPERVKGIAFMEFIRPIPTWDEWPEFARETFQAFRTTDVGRELIIDQNVFIEGTLPMGVVRPLTEVEMDHYREPFLNPVDREPLWRFPNELPIAGEPANIVALVEEYMDWLHQSPVPKLLFWGTPGVLIPPAEAARLAKSLPNCKAVDIGPGLNLLQEDNPDLIGSEIARWLSTLEISGGSGGSGGGGSGGMVFTLEDFVGDWEQTAAYNLDQVLEQGGVSSLLQNLAVSVTPIQRIVRSGENALKIDIHVIIPYEGLSADQMAQIEEVFKVVYPVDDHHFKVILPYGTLVIDGVTPNMLNYFGRPYEGIAVFDGKKITVTGTLWNGNKIIDERLITPDGSMLFRVTINSGSGHHHHHH
Labeling with TMR HaloTag ligand, response to synthetic peptide complementation [4]: better fold response to complementation with the peptide

B8: M2F+D53G+K140E: triple mutant reporter, best candidate protein (protein)
chain: MFHYVDVGPRDGTPVLFLHGNPTSSYVWRNIIPHVAPTHRCIAPDLIGMGKSGKPDLGYFFDDHVRFMDAFIEALGLEEVVLVIHDWGSALGFHWAKRNPERVKGIAFMEFIRPIPTWDEWPEFARETFQAFRTTDVGRELIIDQNVFIEGTLPMGVVRPLTEVEMDHYREPFLNPVDREPLWRFPNELPIAGEPANIVALVEEYMDWLHQSPVPKLLFWGTPGVLIPPAEAARLAKSLPNCKAVDIGPGLNLLQEDNPDLIGSEIARWLSTLEISGGSGGSGGGGSGGMVFTLEDFVGDWEQTAAYNLDQVLEQGGVSSLLQNLAVSVTPIQRIVRSGENALKIDIHVIIPYEGLSADQMAQIEEVFKVVYPVDDHHFKVILPYGTLVIDGVTPNMLNYFGRPYEGIAVFDGKKITVTGTLWNGNKIIDERLITPDGSMLFRVTINSGSGHHHHHH
Function with FAM HaloTag ligand [5]: functional
Function with JF503 HaloTag ligand [5]: functional
Function with JF549 HaloTag ligand [5]: functional
Function with JFX554 HaloTag ligand [5]: functional
Function with Oregon Green HaloTag ligand [5]: functional
Labeling with TMR HaloTag ligand, response to synthetic peptide complementation [4]: best dynamic range of all combinations tested
